Paper PMC4442525

How the values were obtained:
Assay in all cases: pHLA tetramer staining of transfected HEK293T cells
[1] = molecular target: HLA-B*57:01-TW10 tetramer; conditions: parent: est. 100, read off a plot; for response: scale: relative to HLA-B*57:01-TW10 binding to KIR3DL1*001
[2] = molecular target: HLA-B*57:01-LF9 A8 tetramer; conditions: parent: est. 57; read off a plot
[3] = molecular target: HLA-B*57:01-LF9 L8 tetramer; conditions: parent: est. 58; read off a plot
[4] = molecular target: HLA-B*57:01-TW10 T3N tetramer; conditions: read off a plot; for response: parent: est. 19, scale: relative to HLA-B*57:01-TW10 binding to KIR3DL1*001; for percent of parent (normalized to *001 (=100)): parent: est. 100

Substance | percent of parent (normalized to *001 (=100)) [1] | response [1] | response [2] | response [3] | response [4] | percent of parent (normalized to *001 (=100)) [4]
FLAG-tagged KIR3DL1*001 (from UniProt P43629) L166R | 48 | 48 | 9 | 5 | 8 | 36
FLAG-tagged KIR3DL1*001 (from UniProt P43629) P199L | 190 | 190 | 70 |  |  | 
FLAG-tagged KIR3DL1*001 (from UniProt P43629) G138W |  |  | 40 | 23 | 10 | 44
FLAG-tagged KIR3DL1*001 (from UniProt P43629) P163S | 97 | 97 | 45 |  | 9 | 41
